Values of other authors, collected in publication PMC3234256.

Target: Lys73 (UniProt position 71, MMSTFKVLLCG)
Test: NMR

Question: With “TEM-1 beta-lactamase (class A) (Escherichia coli)” as the substance, how does the pKa read?
Answer: Its pKa is “above 10”.
